B1: hD12-II (Antibody hD12 attached to the payload of chemical formula II, stochastic conjugation) (antibody, human IgG2, kappa)
heavy: QVQLVQSGAEVKKPGASVKVSCKASGYTFTSYWMHWVKQAPGQGLDWIGYIKPSTDNTEYNQKFKDKATLTADKSTSTAYMELSSLRSEDTAVYYCARSYGNYPLMDYWGQGTTVTVSSASTKGPSVFPLAPCSRSTSESTAALGCLVKDYFPEPVTVSWNSGALTSGVHTFPAVLQSSGLYSLSSVVTVPSSNFGTQTYTCNVDHKPSNTKVDKTVERKCCVECPPCPAPPVAGPSVFLFPPKPKDTLMISRTPEVTCVVVDVSHEDPEVQFNWYVDGVEVHNAKTKPREEQFNSTFRVVSVLTVVHQDWLNGKEYKCKVSNKGLPAPIEKTISKTKGQPREPQVYTLPPSREEMTKNQVSLTCLVKGFYPSDIAVEWESNGQPENNYKTTPPMLDSDGSFFLYSKLTVDKSRWQQGNVFSCSVMHEALHNHYTQKSLSLSPGK
light: QIVLTQSPAILSLSPGERATLSCSASSSVTSNYLYWYQQKPGSSPKLLIYSTSNLASGVPARFSGSGSGTSYTLTISSLEAEDAASYFCHQWSSYPPTFGSGTKLEIKRTVAAPSVFIFPPSDEQLKSGTASVVCLLNNFYPREAKVQWKVDNALQSGNSQESVTEQDSKDSTYSLSSTLTLSKADYEKHKVYACEVTHQGLSSPVTKSFNRGEC
modifications: payload of chemical formula II on one or more cysteine residues of the antibody at random positions (chain not stated); payload of chemical formula II (pyrrolobenzodiazepine toxin + linking group, maleimide) on one or more cysteine residues of the antibody at random positions
notes: also called hD12-vc-II
B2: hD12-VI (Antibody hD12 attached to the payload of chemical formula VI, stochastic conjugation) (antibody, human IgG2, kappa)
heavy: QVQLVQSGAEVKKPGASVKVSCKASGYTFTSYWMHWVKQAPGQGLDWIGYIKPSTDNTEYNQKFKDKATLTADKSTSTAYMELSSLRSEDTAVYYCARSYGNYPLMDYWGQGTTVTVSSASTKGPSVFPLAPCSRSTSESTAALGCLVKDYFPEPVTVSWNSGALTSGVHTFPAVLQSSGLYSLSSVVTVPSSNFGTQTYTCNVDHKPSNTKVDKTVERKCCVECPPCPAPPVAGPSVFLFPPKPKDTLMISRTPEVTCVVVDVSHEDPEVQFNWYVDGVEVHNAKTKPREEQFNSTFRVVSVLTVVHQDWLNGKEYKCKVSNKGLPAPIEKTISKTKGQPREPQVYTLPPSREEMTKNQVSLTCLVKGFYPSDIAVEWESNGQPENNYKTTPPMLDSDGSFFLYSKLTVDKSRWQQGNVFSCSVMHEALHNHYTQKSLSLSPGK
light: QIVLTQSPAILSLSPGERATLSCSASSSVTSNYLYWYQQKPGSSPKLLIYSTSNLASGVPARFSGSGSGTSYTLTISSLEAEDAASYFCHQWSSYPPTFGSGTKLEIKRTVAAPSVFIFPPSDEQLKSGTASVVCLLNNFYPREAKVQWKVDNALQSGNSQESVTEQDSKDSTYSLSSTLTLSKADYEKHKVYACEVTHQGLSSPVTKSFNRGEC
modifications: payload of chemical formula VI on one or more cysteine residues of the antibody at random positions (chain not stated); payload of chemical formula VI (pyrrolobenzodiazepine toxin + linking group, maleimide) on one or more cysteine residues of the antibody at random positions
notes: Antibody-drug conjugate; also called hD12-vc-VI
B3: hD12-IV (Antibody hD12 attached to the payload of chemical formula IV, stochastic conjugation) (antibody, human IgG2, kappa)
heavy: QVQLVQSGAEVKKPGASVKVSCKASGYTFTSYWMHWVKQAPGQGLDWIGYIKPSTDNTEYNQKFKDKATLTADKSTSTAYMELSSLRSEDTAVYYCARSYGNYPLMDYWGQGTTVTVSSASTKGPSVFPLAPCSRSTSESTAALGCLVKDYFPEPVTVSWNSGALTSGVHTFPAVLQSSGLYSLSSVVTVPSSNFGTQTYTCNVDHKPSNTKVDKTVERKCCVECPPCPAPPVAGPSVFLFPPKPKDTLMISRTPEVTCVVVDVSHEDPEVQFNWYVDGVEVHNAKTKPREEQFNSTFRVVSVLTVVHQDWLNGKEYKCKVSNKGLPAPIEKTISKTKGQPREPQVYTLPPSREEMTKNQVSLTCLVKGFYPSDIAVEWESNGQPENNYKTTPPMLDSDGSFFLYSKLTVDKSRWQQGNVFSCSVMHEALHNHYTQKSLSLSPGK
light: QIVLTQSPAILSLSPGERATLSCSASSSVTSNYLYWYQQKPGSSPKLLIYSTSNLASGVPARFSGSGSGTSYTLTISSLEAEDAASYFCHQWSSYPPTFGSGTKLEIKRTVAAPSVFIFPPSDEQLKSGTASVVCLLNNFYPREAKVQWKVDNALQSGNSQESVTEQDSKDSTYSLSSTLTLSKADYEKHKVYACEVTHQGLSSPVTKSFNRGEC
modifications: payload of chemical formula IV on one or more cysteine residues of the antibody at random positions (chain not stated); payload of chemical formula IV (pyrrolobenzodiazepine toxin + linking group, maleimide) on one or more cysteine residues of the antibody at random positions
notes: Antibody-drug conjugate; also called hD12-vc-IV

target: T1, Recombinant Human c-Met-10X His (human, UniProt P08581 25-932); experiment: ELISA, plate-bound human cMET (FIGS. 17A, 17B)
T1 construct: In-house reagent (Lot #140924TA); not shown: 10X His tag
Excerpt: Relative binding strength is indicated by luminescence (y-axis).

T1 sequence (P08581 25-932 limits assumed): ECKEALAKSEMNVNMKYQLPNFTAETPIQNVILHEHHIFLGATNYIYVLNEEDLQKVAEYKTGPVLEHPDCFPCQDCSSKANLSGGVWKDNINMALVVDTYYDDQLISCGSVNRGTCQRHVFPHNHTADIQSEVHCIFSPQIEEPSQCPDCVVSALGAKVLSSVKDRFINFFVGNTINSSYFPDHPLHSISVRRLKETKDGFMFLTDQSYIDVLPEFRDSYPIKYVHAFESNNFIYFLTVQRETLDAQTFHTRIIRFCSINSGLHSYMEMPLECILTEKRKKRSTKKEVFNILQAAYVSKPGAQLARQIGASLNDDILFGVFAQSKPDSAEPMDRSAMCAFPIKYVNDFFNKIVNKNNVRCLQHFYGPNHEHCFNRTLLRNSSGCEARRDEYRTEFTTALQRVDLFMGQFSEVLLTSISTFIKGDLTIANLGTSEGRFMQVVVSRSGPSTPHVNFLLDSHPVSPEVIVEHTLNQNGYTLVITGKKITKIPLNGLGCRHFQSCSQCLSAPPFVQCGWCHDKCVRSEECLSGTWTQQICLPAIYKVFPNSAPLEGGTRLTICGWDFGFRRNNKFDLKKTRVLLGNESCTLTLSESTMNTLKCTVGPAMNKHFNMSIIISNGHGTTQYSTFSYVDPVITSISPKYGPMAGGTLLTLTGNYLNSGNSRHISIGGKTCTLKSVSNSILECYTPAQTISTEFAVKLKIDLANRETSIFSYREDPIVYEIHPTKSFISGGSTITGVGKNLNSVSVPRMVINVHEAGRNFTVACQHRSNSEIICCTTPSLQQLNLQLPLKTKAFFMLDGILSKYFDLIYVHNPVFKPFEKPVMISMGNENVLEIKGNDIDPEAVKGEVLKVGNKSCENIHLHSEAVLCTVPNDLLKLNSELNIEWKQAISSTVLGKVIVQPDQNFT

Binding result, binds:
B1
B2
B3

— patent US20250032632A1 (published 2025)
